Molecular target: GFP-LC3B (UniProt Q9GZQ8)
Assay: co-IP; GFP-LC3 captured on GFP-Trap magnetic beads from HEK-293 T lysates (NP-40 IP lysis buffer: 50 mM Tris-HCl pH 7.5, 150 mM NaCl, 1 mM EDTA, 1% IGEPAL), 1 h at 4 °C; HA-BNIP3 forms detected by blot; cells with or without 100 nM bafilomycin A1 and with or without exogenous FLAG-ULK1

Sequence of HA-BNIP3 (WT) (natural protein) (Q12983 whole entry): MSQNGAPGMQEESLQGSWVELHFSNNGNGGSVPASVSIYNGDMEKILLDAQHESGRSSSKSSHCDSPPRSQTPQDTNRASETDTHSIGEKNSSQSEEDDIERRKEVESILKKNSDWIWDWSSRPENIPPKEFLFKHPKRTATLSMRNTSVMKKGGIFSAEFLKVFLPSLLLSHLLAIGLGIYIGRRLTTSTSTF

HA-BNIP3 (WT) (natural protein)
fold increase in binding with 100 nM bafilomycin A1 against untreated cells: 2.5 fold

HA-BNIP3 S17E (natural protein)
fold increase in binding with 100 nM bafilomycin A1 against untreated cells: 9 fold
